Laboratory results from US20110311550A1 (Scripps Research, published 2011).

Legend:
Assay in all cases: ELISA, lectin-captured E1E2 lysate, Ab 1 ug/ml;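 note: E1E2 captured on Galanthus nivalis lectin-coated plates, bound test antibody read out by an HRP-linked secondary antibody and TMB colour development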
[1] = biological target: E1E2 complex (H77) with E1 mutation Y192A (HCV genotype 1a, isolate H77, UniProt P27958 193-383; P27958 384-746)
[2] = biological target: E1E2 complex (H77) with E1 mutation N234A (HCV genotype 1a, isolate H77, UniProt P27958 192-383; P27958 384-746)
[3] = biological target: E1E2 complex (H77) with E1 mutation V246A (HCV genotype 1a, isolate H77, UniProt P27958 192-383; P27958 384-746)
[4] = biological target: E1E2 complex (H77) with E1 mutation W239A (HCV genotype 1a, isolate H77, UniProt P27958 192-383; P27958 384-746)
[5] = biological target: E1E2 complex (H77) with E1 mutation T329A (HCV genotype 1a, isolate H77, UniProt P27958 192-383; P27958 384-746)
[6] = biological target: E1E2 complex (H77) with E1 mutation F293A (HCV genotype 1a, isolate H77, UniProt P27958 192-383; P27958 384-746)
[7] = biological target: E1E2 complex (H77) with E1 mutation F291A (HCV genotype 1a, isolate H77, UniProt P27958 192-383; P27958 384-746)
[8] = biological target: E1E2 complex (H77) with E1 mutation R195A (HCV genotype 1a, isolate H77, UniProt P27958 192-383; P27958 384-746)
[9] = biological target: E1E2 complex (H77) with E1 mutation H261A (HCV genotype 1a, isolate H77, UniProt P27958 192-383; P27958 384-746)
[10] = biological target: E1E2 complex (H77) with E1 mutation S236A (HCV genotype 1a, isolate H77, UniProt P27958 192-383; P27958 384-746)
[11] = biological target: E1E2 complex (H77) with E1 mutation P295A (HCV genotype 1a, isolate H77, UniProt P27958 192-383; P27958 384-746)
[12] = biological target: E1E2 complex (H77) with E1 mutation N305A (HCV genotype 1a, isolate H77, UniProt P27958 192-383; P27958 384-746)
[13] = biological target: E1E2 complex (H77) with E1 mutation N209A (HCV genotype 1a, isolate H77, UniProt P27958 192-383; P27958 384-746)
[14] = biological target: E1E2 complex (H77) with E1 mutation V227A (HCV genotype 1a, isolate H77, UniProt P27958 192-383; P27958 384-746)
[15] = biological target: E1E2 complex (H77) with E1 mutation S307A (HCV genotype 1a, isolate H77, UniProt P27958 192-383; P27958 384-746)
[16] = biological target: E1E2 complex (H77) with E1 mutation H298A (HCV genotype 1a, isolate H77, UniProt P27958 192-383; P27958 384-746)
[17] = biological target: E1E2 complex (H77) with E1 mutation H316A (HCV genotype 1a, isolate H77, UniProt P27958 192-383; P27958 384-746)
[18] = biological target: E1E2 complex (H77) with E1 mutation D263A (HCV genotype 1a, isolate H77, UniProt P27958 192-383; P27958 384-746)
[19] = biological target: E1E2 complex (H77) with E1 mutation G278A (HCV genotype 1a, isolate H77, UniProt P27958 192-383; P27958 384-746)
[20] = biological target: E1E2 complex (H77) with E1 mutation T204A (HCV genotype 1a, isolate H77, UniProt P27958 192-383; P27958 384-746)
[21] = biological target: E1E2 complex (H77) with E1 mutation W326A (HCV genotype 1a, isolate H77, UniProt P27958 192-383; P27958 384-746)
[22] = biological target: E1E2 complex (H77) with E1 mutation R339A (HCV genotype 1a, isolate H77, UniProt P27958 192-383; P27958 384-746)

B1: N4 IgG (antibody, V domains shown)
VH: VQLLEQSGPEVKKPGDSLRISCKMSGDSLVTTWIGWVRQKPGQGLEWMGIINPGDSSTNIYPGDSATRYGPSFQGQVTISIDKSTSTAYLQWNNVKASDTGIYYCARHVPVPISGTFLWREREMHDFGYFDDWGQGTLVIVSS
VL: ELTLTQSPGTLSLSPGERATLSCRASQSVSNNYLAWYQQKPGQAPRLLIYGASSRATGIPDRFSGSGSGTGFTLIISRLEPEDFAVYYCQQYGSSSITFGQGTRLEIKR
notes: also called IgG N4
Binding relative to wt (%) [1]: 122% | Binding relative to wt (%) [2]: 114% | Binding relative to wt (%) [3]: 97% | Binding relative to wt (%) [4]: 67% | Binding relative to wt (%) [5]: 114% | Binding relative to wt (%) [6]: 95% | Binding relative to wt (%) [7]: 131% | Binding relative to wt (%) [8]: 121% | Binding relative to wt (%) [9]: 106% | Binding relative to wt (%) [10]: 81% | Binding relative to wt (%) [11]: 82% | Binding relative to wt (%) [12]: 42% | Binding relative to wt (%) [13]: 117% | Binding relative to wt (%) [14]: 98% | Binding relative to wt (%) [15]: 58% | Binding relative to wt (%) [16]: 62% | Binding relative to wt (%) [17]: 70% | Binding relative to wt (%) [18]: 85% | Binding relative to wt (%) [19]: 68% | Binding relative to wt (%) [20]: 24% | Binding relative to wt (%) [21]: 125% | Binding relative to wt (%) [22]: 119%
